Target: GST-SETD6 (UniProt Q8TBK2)
Sequence (Q8TBK2 whole entry): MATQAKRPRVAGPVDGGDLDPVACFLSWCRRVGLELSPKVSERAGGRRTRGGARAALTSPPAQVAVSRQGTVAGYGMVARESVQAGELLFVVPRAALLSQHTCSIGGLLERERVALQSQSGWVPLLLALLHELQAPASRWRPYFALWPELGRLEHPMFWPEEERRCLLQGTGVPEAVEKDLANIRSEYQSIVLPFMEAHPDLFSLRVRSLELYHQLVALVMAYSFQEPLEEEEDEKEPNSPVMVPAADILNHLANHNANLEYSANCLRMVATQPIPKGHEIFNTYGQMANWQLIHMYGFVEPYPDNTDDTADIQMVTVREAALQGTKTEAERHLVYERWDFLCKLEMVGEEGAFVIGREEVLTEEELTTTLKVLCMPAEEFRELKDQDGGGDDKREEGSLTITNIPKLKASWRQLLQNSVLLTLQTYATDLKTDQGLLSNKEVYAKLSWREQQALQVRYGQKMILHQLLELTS

Substance: vp22-RelA302-316 peptide (from UniProt Q04206 302-316)
- auto-methylation signal of recombinant GST-SETD6 (in vitro methylation assay with 3H-labeled S-adenosyl methionine) with increasing amounts of vp22-RelA; significant reduction at 0.5 μM: 2 µM

Source: publication PMC5797019, “Peptide inhibition of the SETD6 methyltransferase catalytic activity” (Oncotarget, 2017)
